# From PMC546145
# Like-named read-outs stand apart in the source and are kept apart here.
# B1: 5P/5B undamaged (dsDNA)
# DNA 1: CCCCTGGCTTTCTTTTCCTCTTCCTTCCCC
# DNA 2: GGGGAAGGAAGAGGAAAAGAAAGCCAGGGG
# modifications: 5' biotin on strand 2
# B2: MP/5B + Pt (dsDNA)
# DNA 1: CCCCTCTCCTTCTTGGCTTCTTCCTTCCCC
# DNA 2: GGGGAAGGAAGAAGCCAAGAAGGAGAGGGG
# modifications: cisplatin adduct at central GG of strand 1 (15-16); 5' biotin on strand 2
# B3: MP/3B + Pt (dsDNA)
# DNA 1: B2 DNA 1
# DNA 2: B2 DNA 2
# modifications: cisplatin adduct at central GG of strand 1 (15-16); 3' biotin on strand 2
# Columns and labels:
# Assay in all cases: competition EMSA
# [1] = target: T1, Ku heterodimer, Ku70 subunit;Ku heterodimer, Ku80 subunit (human;human, UniProt P12956;P13010 1-609;1-732, |)
# [2] = target: T1, Ku heterodimer, Ku70 subunit;Ku …; remark: listed apart in the source
# [3] = target: T1, Ku heterodimer, Ku70 subunit;Ku …; remark: listed apart in the source
# T1 sequence (P12956 whole entry, chain 1 of 2): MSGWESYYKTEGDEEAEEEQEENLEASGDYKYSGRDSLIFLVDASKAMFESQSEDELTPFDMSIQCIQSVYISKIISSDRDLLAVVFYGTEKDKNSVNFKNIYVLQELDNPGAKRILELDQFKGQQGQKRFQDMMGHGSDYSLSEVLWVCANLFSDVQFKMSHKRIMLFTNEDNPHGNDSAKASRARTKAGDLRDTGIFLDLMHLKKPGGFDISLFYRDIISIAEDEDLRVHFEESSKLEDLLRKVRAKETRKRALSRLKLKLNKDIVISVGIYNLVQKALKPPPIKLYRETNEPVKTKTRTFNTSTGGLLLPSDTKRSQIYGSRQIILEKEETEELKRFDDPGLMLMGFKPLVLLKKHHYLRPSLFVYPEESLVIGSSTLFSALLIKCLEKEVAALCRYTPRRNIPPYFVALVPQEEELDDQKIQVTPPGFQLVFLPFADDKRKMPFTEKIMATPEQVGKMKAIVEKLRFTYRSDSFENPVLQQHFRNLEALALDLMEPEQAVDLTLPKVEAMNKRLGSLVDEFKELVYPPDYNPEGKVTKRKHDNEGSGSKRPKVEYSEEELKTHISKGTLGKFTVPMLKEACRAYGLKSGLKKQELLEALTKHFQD
# T1 sequence (P13010 whole entry, chain 2 of 2): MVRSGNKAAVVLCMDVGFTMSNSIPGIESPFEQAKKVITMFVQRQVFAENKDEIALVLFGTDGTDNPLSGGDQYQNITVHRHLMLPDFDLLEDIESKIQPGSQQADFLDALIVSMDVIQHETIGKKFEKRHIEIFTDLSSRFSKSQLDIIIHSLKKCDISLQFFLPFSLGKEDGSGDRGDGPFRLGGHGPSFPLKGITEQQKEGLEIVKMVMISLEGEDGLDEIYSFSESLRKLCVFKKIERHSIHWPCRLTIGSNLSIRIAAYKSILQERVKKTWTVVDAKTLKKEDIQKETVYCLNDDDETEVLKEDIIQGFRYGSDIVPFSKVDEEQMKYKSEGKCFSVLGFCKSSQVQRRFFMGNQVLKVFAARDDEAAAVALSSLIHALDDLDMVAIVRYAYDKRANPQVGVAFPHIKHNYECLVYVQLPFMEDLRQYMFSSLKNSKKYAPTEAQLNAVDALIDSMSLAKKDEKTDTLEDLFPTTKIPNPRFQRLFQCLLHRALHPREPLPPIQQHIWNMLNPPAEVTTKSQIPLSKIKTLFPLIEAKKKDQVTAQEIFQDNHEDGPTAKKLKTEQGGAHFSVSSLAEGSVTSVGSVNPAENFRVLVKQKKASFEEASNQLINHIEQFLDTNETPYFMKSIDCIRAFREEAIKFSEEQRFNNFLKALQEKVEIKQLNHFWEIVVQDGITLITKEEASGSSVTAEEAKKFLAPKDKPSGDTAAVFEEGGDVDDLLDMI
binder,measurement,setting,value
B1,binding result,[1],binds
B2,binding result,[2],binds
B3,binding result,[3],binds
